Biological target: transferrin receptor on human erythroleukemic K562 cells (human, UniProt P02786 1-760)
Assay: cell-based or functional assay

transferrin receptor on human erythroleukemic K562 cells, sequence (P02786 whole entry): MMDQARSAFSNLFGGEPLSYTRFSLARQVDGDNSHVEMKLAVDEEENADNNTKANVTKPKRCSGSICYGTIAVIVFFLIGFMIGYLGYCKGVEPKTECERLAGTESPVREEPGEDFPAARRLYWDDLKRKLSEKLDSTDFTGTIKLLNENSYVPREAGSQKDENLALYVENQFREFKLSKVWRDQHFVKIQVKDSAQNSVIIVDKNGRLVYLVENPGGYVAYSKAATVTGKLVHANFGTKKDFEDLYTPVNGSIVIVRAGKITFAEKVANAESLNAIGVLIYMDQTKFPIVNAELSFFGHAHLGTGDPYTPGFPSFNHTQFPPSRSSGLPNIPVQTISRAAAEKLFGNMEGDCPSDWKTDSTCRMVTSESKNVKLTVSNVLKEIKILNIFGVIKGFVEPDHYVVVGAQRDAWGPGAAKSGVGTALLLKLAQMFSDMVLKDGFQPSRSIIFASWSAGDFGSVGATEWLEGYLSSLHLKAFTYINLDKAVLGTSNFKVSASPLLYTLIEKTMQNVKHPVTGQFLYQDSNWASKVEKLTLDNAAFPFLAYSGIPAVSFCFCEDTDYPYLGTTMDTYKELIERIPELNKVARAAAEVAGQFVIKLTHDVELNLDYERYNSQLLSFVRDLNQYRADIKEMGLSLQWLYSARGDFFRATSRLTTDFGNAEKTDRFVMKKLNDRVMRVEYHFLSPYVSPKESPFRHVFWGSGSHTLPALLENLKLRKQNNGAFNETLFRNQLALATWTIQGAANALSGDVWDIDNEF

- Apparent Affinity (competition against 55Fe uptake from labelled plasma transferrin by K562 cells): 123 nM
B1: recombinant transferrin (N413Q, N611Q) (ligand)
chain: VPDKTVRWCAVSEHEATKCQSFRDHMKSVIPSDGPSVACVKKASYLDCIRAIAANEADAVTLDAGLVYDAYLAPNNLKPVVAEFYGSKEDPQTFYYAVAVVKKDSGFQMNQLRGKKSCHTGLGRSAGWNIPIGLLYCDLPEPRKPLEKAVANFFSGSCAPCADGTDFPQLCQLCPGCGCSTLNQYFGYSGAFKCLKDGAGDVAFVKHSTIFENLANKADRDQYELLCLDNTRKPVDEYKDCHLAQVPSHTVVARSMGGKEDLIWELLNQAQEHFGKDKSKEFQLFSSPHGKDLLFKDSAHGFLKVPPRMDAKMYLGYEYVTAIRNLREGTCPEAPTDECKPVKWCALSHHERLKCDEWSVNSVGKIECVSAETTEDCIAKIMNGEADAMSLDGGFVYIAGKCGLVPVLAENYQKSDNCEDTPEAGYFAVAVVKKSASDLTWDNLKGKKSCHTAVGRTAGWNIPMGLLYNKINHCRFDEFFSEGCAPGSKKDSSLCKLCMGSGLNLCEPNNKEGYYGYTGAFRCLVEKGDVAFVKHQTVPQNTGGKNPDPWAKNLNEKDYELLCLDGTRKPVEEYANCHLARAPNHAVVTRKDKEACVHKILRQQQHLFGSQVTDCSGNFCLFRSETKDLLFRDDTVCLAKLHDRNTYEKYLGEEYVKAVGNLRKCSTSSLLEACTFRRP

From patent publication US20140031294A1 (NOVOZYMES BIOPHARMA UK, published 2014)
